Measured values as given in patent publication US20250361296A1 (BIOCYTOGEN PHARMACEUTICALS BEIJING, published 2025).

T1: human SIGLEC15 on CHO-S-hSIGLEC15 cells (human, UniProt Q6ZMC9 20-328)
T1 sequence: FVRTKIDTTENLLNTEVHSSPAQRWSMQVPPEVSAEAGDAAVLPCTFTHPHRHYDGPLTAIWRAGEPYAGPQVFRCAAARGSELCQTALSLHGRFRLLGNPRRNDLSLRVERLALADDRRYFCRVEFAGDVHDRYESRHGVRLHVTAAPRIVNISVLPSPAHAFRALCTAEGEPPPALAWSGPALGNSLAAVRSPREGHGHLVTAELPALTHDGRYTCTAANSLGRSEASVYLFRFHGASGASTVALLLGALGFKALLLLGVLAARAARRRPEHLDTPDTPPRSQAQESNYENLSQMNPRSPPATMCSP

T2: hSIGLEC15 protein captured in the epitope analysis of Example 4 (human, UniProt Q6ZMC9 20-263, limits assumed)
T2 sequence: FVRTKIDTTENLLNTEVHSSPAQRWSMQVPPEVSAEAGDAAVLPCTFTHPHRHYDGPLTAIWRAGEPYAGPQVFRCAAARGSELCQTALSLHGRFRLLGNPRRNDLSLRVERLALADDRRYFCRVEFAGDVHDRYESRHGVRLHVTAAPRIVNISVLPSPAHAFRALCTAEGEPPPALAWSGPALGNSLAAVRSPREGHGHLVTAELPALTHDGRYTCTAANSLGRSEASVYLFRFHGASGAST

T3: mouse SIGLEC15 on CHO-S-mSIGLEC15 cells (mouse)
T3 chain: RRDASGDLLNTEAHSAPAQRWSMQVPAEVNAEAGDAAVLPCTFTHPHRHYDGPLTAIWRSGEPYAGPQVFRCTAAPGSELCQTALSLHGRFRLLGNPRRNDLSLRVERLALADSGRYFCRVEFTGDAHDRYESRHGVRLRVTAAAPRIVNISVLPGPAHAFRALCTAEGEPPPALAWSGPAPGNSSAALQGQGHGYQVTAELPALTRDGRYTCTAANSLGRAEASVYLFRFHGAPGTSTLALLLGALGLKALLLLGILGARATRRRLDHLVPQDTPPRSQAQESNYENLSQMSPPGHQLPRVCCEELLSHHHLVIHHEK

T4: dog SIGLEC15 on CHO-S-dSIGLEC15 cells (dog)
T4 chain: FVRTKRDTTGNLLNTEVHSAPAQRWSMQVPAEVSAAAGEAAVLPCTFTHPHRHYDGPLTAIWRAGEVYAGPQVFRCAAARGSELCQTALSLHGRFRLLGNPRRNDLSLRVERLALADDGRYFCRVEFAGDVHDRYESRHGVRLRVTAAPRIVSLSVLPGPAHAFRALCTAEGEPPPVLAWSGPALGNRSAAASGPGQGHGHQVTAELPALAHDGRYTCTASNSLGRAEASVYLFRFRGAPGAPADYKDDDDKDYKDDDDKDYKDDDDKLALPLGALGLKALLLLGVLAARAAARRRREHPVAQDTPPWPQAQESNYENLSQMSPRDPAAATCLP


Columns and labels:
[1] = target: T1, human SIGLEC15 on CHO-S-hSIGLEC15 cells; assay: flow cytometry (MFI) on CHO-S-hSIGLEC15 cells; antibody sample: freeze 1
Protocol: (§1) In the activity detection experiment, 30 μL of CHO-S-hSIGLEC15 cells were added to the culture plate, and the antibody to be tested was added in a gradient dilution ([…]), and incubated at 4° C. for 30 min. The plate was washed with PBS, and diluted secondary antibody Anti-hIgG-Fc-Alex Flour 647 (RL1-H) (1:2000) was added, incubated at 4° C. for 30 min. The plate was washed once with PBS and the cells were resuspended for flow cytometry detection. MFI value was derived by FlowJo 7.6.1 analysis to calculate EC50.

[2] = target: T2, hSIGLEC15 protein captured in the …; assay: BLI pairwise binning on captured hSIGLEC15, 200 nM each antibody; competitor 23F4
Protocol: Relative positions of target protein epitope between a pair of purified anti-SIGLEC15 antibodies were analyzed by Biolayer Interferometry (BLI) using ForteBio Octet system at 30° C. A total of 4 purified antibodies were used: 5G12, 10A7, 10C9 and 23F4.
1×HBS-EP+ buffer (10 mM 4-(2-hydroxyethyl)-1-piperazineethanesulfonic acid (HEPES), 150 mM NaCl, 3 mM ethylenediaminetetraacetic acid (EDTA) and 0.05% P20, pH7.4) diluted from HBS-EP+ buffer (10×) was used as the running buffer throughout the experiment. About 100 RU of hSIGLEC15 protein was captured at a flow rate of 10 μL/min, and 200 nM of antibody was injected at a flow rate of 30 μL/min to bind the ligand. Another antibody was injected under the same conditions to determine whether the binding of different antibodies interfered with each other. The binding time was 300 s for each antibody.
The binding value of each antibody was obtained using Data Analysis HT 12.0. To quantify the interference of one antibody binding to another, a binding ratio was calculated to compare each pair of antibodies. The binding ratio is defined as the binding value of the second antibody (analyte 2), divided by the binding value of the first antibody (analyte 1). […] In general, antibody pairs that interfere with each other have the same or overlapping epitopes.

[3] = target: T3, mouse SIGLEC15 on CHO-S-mSIGLEC15 cells; assay: flow cytometry, CHO-S cells expressing the target
Protocol: (§2) CHO-S-hSIGLEC15 cells, CHO-S-mSIGLEC15 cells, CHO-S-fasSIGLEC15 cells or CHO-S-dSIGLEC15 cells were transferred to a 96-well plate at a density of 5×10⁴ cells/well respectively. Serially diluted sample anti-SIGLEC15 antibodies were added to the 96-well plate, and incubated at 4° C. for 30 min. Then, the cells were incubated with the secondary antibody anti-hIgG-Fc-Alex Flour 647 (RL1-H) (Jackson ImmunoResearch Laboratories, Inc., 109-606-170) at 4° C. in the dark for 15 minutes before flow cytometry analysis.

[4] = target: T4, dog SIGLEC15 on CHO-S-dSIGLEC15 cells; assay: flow cytometry, CHO-S cells expressing the target
Protocol: as §2

[5] = target: T1, human SIGLEC15 on CHO-S-hSIGLEC15 cells; assay: flow cytometry, CHO-S cells expressing the target
Protocol: as §2

[6] = target: T1, human SIGLEC15 on CHO-S-hSIGLEC15 cells; assay: flow cytometry (MFI) on CHO-S-hSIGLEC15 cells; antibody sample: freeze 10
Protocol: as §1

| EC50 [1] [µg/mL] | binding ratio [2] | Percentage of Positive Cells [3] [%] | Percentage of Positive Cells [4] [%] | Percentage of Positive Cells [5] [%] | EC50 [6] [µg/mL] | Binder |
| --- | --- | --- | --- | --- | --- | --- |
| 0.62 | 0.72 | 29.3 | 37.3 | 16.3 | 0.81 | anti-SIGLEC15 antibody 10C9 (antibody, human IgG1, V domains shown) VH: QVQLVQSGAEVKKPGATVKVSCKASGYTFTNYGFSWVRQAPGQGLEWMGWINTYNDNTNYAQKFQGRVTMTTDTSTSTAYMELRSLRSDDTAVYYCARDGLWFGELPHYFDYWGQGTLVTVSS VL: DIQLTQSPLSSPVTLGQPASISCRSSQSLVNSDGETFLSWLQQRPGQPPRLLIYKISNRFSGVPDRFSGSGAGTDFTLKISRVEAEDVGVYYCMQATQFPHTFGQGTKLEIK |
|  | 0.43 | 38.5 | 22.8 | 17.9 |  | anti-SIGLEC15 antibody 10A7 (antibody, human IgG1, V domains shown) VH: EVQLVQSGGGLVQPGGSLRLSCAASGFTFSNYEMNWVRQAPGKGLEWISYISNSGSTIYYADSVKGRFTISRDDAKNSLYLQMNSLRAEDTAVYYCAREDYDSSGYYWFDPWGQGTPVTVSS VL: DIQLTQSPSSVSASVGDRVTITCRASQGISSWLAWYQQKPGKAPKLLIYAASSLQSGVPSRFSGSGSGTDFTLTINSLQPEDFATYYCQQTNSFPLTFGGGTKVEIK |
| 0.125 | 0.07 | 40.5 | 24.6 | 25.6 | 0.129 | anti-SIGLEC15 antibody 23F4 (antibody, human IgG1, V domains shown) VH: QVQLQQWGAGLLKPSETLSLTCAVYGGSFSGYFWSWIRQPPGKGLEWIGEINHSGSTNYNPSLKSRVTLSVDTSKNQFSLKLSSVTAADTAVYYCAREGDSSSWGNWFDPWGQGTLVTVSS VL: EIVLTQSPGTLSLSPGERATLSCRASQSVSSSYLAWYQQKPGQAPRFLIYGASSRATGIPDRFSGSGSGTDFTLTISRLEPEDFAVYYCQQFGNSPLTFGGGTKVEIK |
